From article PMC7112428 (International Journal of Biological Macromolecules, 2018)

Target: the molecule itself
Test: SEC

B1: recombinant porcine aminopeptidase N ectodomain (residues 63-963) (domain or fragment, UniProt P15145 63-963, looked up)
chain: QSKPWNRYRLPTTLLPDSYNVTLRPYLTPNADGLYIFKGKSIVRLLCQEPTDVIIIHSKKLNYTTQGHMVVLRGVGDSQVPEIDRTELVELTEYLVVHLKGSLQPGHMYEMESEFQGELADDLAGFYRSEYMEGNVKKVLATTQMQSTDARKSFPCFDEPAMKATFNITLIHPNNLTALSNMPPKGSSTPLAEDPNWSVTEFETTPVMSTYLLAYIVSEFQSVNETAQNGVLIRIWARPNAIAEGHGMYALNVTGPILNFFANHYNTSYPLPKSDQIALPDFNAGAMENWGLVTYRENALLFDPQSSSISNKERVVTVIAHELAHQWFGNLVTLAWWNDLWLNEGFASYVEYLGADHAEPTWNLKDLIVPGDVYRVMAVDALASSHPLTTPAEEVNTPAQISEMFDSISYSKGASVIRMLSNFLTEDLFKEGLASYLHAFAYQNTTYLDLWEHLQKAVDAQTSIRLPDTVRAIMDRWTLQMGFPVITVDTKTGNISQKHFLLDSESNVTRSSAFDYLWIVPISSIKNGVMQDHYWLRDVSQAQNDLFKTASDDWVLLNVNVTGYFQVNYDEDNWRMIQHQLQTNLSVIPVINRAQVIYDSFNLATAHMVPVTLALDNTLFLNGEKEYMPWQAALSSLSYFSLMFDRSEVYGPMKKYLRKQVEPLFQHFETLTKNWTERPENLMDQYSEINAISTACSNGLPQCENLAKTLFDQWMSDPENNPIHPNLRSTIYCNAIAQGGQDQWDFAWGQLQQAQLVNEADKLRSALACSNEVWLLNRYLGYTLNPDLIRKQDATSTINSIASNVIGQPLAWDFVQSNWKKLFQDYGGGSFSFSNLIQGVTRRFSSEFELQQLEQFKKNNMDVGFGSGTRALEQALEKTKANIKWVKENKEVVLNWFIEHS
For B1, the “stoichiometry N” value was 2.
